This data set addresses Recombinant human GST-TDP-43 (N-terminal GST tag, full length), non-phosphorylated.

1 protein from patent publication US20100136573 can be followed below.

Chain of Recombinant human GST-TDP-43 (N-terminal GST tag, full length), non-phosphorylated (chain, as listed by the source): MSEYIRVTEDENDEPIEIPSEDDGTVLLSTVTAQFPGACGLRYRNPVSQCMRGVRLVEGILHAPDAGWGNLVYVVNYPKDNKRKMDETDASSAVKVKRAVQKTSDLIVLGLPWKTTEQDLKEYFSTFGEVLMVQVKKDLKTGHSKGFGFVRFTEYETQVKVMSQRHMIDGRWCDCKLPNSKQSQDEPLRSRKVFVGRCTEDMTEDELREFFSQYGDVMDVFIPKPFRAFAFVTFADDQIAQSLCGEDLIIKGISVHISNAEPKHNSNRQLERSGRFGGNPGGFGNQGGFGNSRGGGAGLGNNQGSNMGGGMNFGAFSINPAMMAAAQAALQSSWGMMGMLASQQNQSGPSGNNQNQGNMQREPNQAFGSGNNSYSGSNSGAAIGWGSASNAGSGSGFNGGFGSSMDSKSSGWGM

B1: active human recombinant caspase-3 (CHEMICON) (protein)
chain: SGISLDNSYKMDYPEMGLCIIINNKNFHKSTGMTSRSGTDVDAANLRETFRNLKYEVRNKNDLTREEIVELMRDVSKEDHSKRSSFVCVLLSHGEEGIIFGTNGPVDLKKITNFFRGDRCRSLTGKPKLFIIQACRGTELDCGIETDSGVDDDMACHKIPVEADFLYAYSTAPGYYSWRNSKDGSWFIQSLCAMLKQYADKLEFMHILTRVNRKVATEFESFSFDATFHAKKQIPCIVSMLTKELYFYH
For B1, the “in vitro cleavage, SDS-PAGE stained with Coomassie” value is “cleavage of full length TDP-43 by purified cleaved caspase-3, resulting in three distinct fragments of approximately 42, 35, and 25 kD”.
